Experimental findings from article doi:10.1101/2024.03.19.585040 are described below.

Where two headings read alike, the source gives them in different places.

Broadly, the stoichiometry N is a count of units in the complex or per binding partner. For orientation: Kd means the equilibrium constant for the complex coming apart. Low values mean higher affinity, high ones lower affinity.

In experiment [1] the target is FakA H282A, H284A (Staphylococcus aureus) (Staphylococcus aureus). The experiment in a line: mass photometry.
The target is the same in experiment [2]. In words: mass photometry. This is another data set of the same source.
Experiment [3] has as its target Fatty acid kinase FakA (Staphylococcus aureus), wild type (Staphylococcus aureus). The experiment in a line: mass photometry.
The target is the same in experiment [4]. In words: mass photometry. This is another data set of the same source.
The target is the same in experiment [5]. The experiment in a line: SEC-SAXS. (In general: In gel filtration, larger molecules generally elute earlier.)
Experiment [6] addresses His-tagged FakB2 (Staphylococcus aureus) (Staphylococcus aureus). The experiment in a line: BLI.

“FakA H282A, H284A (Staphylococcus aureus) (enzyme)”: the percent of the protein in the dimer peak came to 24% in experiment [1] and 63% in experiment [2].

In the case of “Fatty acid kinase FakA (Staphylococcus aureus), wild type (enzyme)”, the percent of the protein in the dimer peak worked out at 57% in experiment [3] and 77% in experiment [4]. The stoichiometry N in experiment [4] and in experiment [5] was 2 in each case. Moreover, the Kd in experiment [6] is 4.34 nM.
